Source: US20170240632A1, “COMPOSITIONS AND METHODS FOR IDENTIFYING AND TREATING CACHEXIA OR PRE-CACHEXIA” (THE BROAD INSTITUTE INC., priority 2014, published 2017)
Entries after “also recorded” stand apart in the source; their conditions may differ.

Test system: Primary human myoblast differentiated into terminal myotubes
Experiment: Cachexia induction by recombinant S100/HMGB1 proteins, myosin HC in-cell Western
Format: cell-based
Conditions: recombinant ligands in Hanks Balance Salt Solution applied 1:2 v:v to fresh maintenance media each day for 3 days
Description: FIG. 1 is a graph showing the differential cachexia-inducing activity of r-S100 faimily proteins. All rpooteins are tested in HBSS buffer. Myosin HC is measured in an in-cell Western assay.
FIGS. 1-4 illustrate the effect of various proteins of the S100 family, as well as HMGB1, as cachexia inducers when conmpared with cachexia-inducing media. Primary human myoblast were plated and differentiated into terminal myotubes as previously described. Recombinant ligands were prepared at the same dose curve in Hanks Balance Salt Solution (buffer) and applied 1:2 v:v to fresh maintenance media each day for 3 days. Cells were assessed for myosin HC content by in-cell Western staining as previously described.

B1: S100B: recombinant S100 family protein, RAGE ligand (protein, listed as Homo sapiens)
chain: MSELEKAMVALIDVFHQYSGREGDKHKLKKSELKELINNELSHFLEEIKEQEVVDKVMETLDNDGDGECDFQEFMAFVAMVTTACHEFFEHE
- induction of the cachectic phenotype (myosin HC content): little or no activity; also recorded: do not induce precachexia and/or cachexia

B2: S100A7: recombinant S100 family protein, RAGE ligand (protein, listed as Homo sapiens)
chain: MSNTQAERSIIGMIDMFHKYTRRDDKIEKPSLLTMMKENFPNFLSACDKKGTNYLADVFEKKDKNEDKKIDFSEFLSLLGDIATDYHKQSHGAAPCSGGSQ
- induction of the cachectic phenotype (myosin HC content): key effector molecules in inducing precachexia and/or cachexia
- induction of the cachectic phenotype (myosin HC content) (listed as S100 A7): inducers of the cachectic phenotype

B3: S100A9: recombinant S100 family protein, RAGE ligand (protein, listed as Homo sapiens)
chain: MTCKMSQLERNIETIINTFHQYSVKLGHPDTLNQGEFKELVRKDLQNFLKKENKNEKVIEHIMEDLDTNADKQLSFEEFIMLMARLTWASHEKMHEGDEGPGHHHKPGLGEGTP
- induction of the cachectic phenotype (myosin HC content): key effector molecules in inducing precachexia and/or cachexia
- induction of the cachectic phenotype (myosin HC content) (listed as A9): inducers of the cachectic phenotype

B4: S100A8: recombinant S100 family protein, RAGE ligand (protein, listed as Homo sapiens)
chain: MLTELEKALNSIIDVYHKYSLIKGNFHAVYRDDLKKLLETECPQYIRKKGADVWFKELDINTDGAVNFQEFLILVIKMGVAAHKKSHEESHKE
- induction of the cachectic phenotype (myosin HC content): key effector molecules in inducing precachexia and/or cachexia
- induction of the cachectic phenotype (myosin HC content) (listed as A8): inducers of the cachectic phenotype

B5: Calprotectin: homodimers, heterodimers and heterotetramers of S100A8 and S100A9 (protein, UniProt P05109 1-93; P06702 1-114, looked up)
Protein S100-A8: B4 chain
Protein S100-A9: B3 chain
- induction of the cachectic phenotype (myosin HC content): key effector molecules in inducing precachexia and/or cachexia

B6: HMGB1: high mobility group box 1, RAGE ligand (protein, UniProt P09429 1-215, looked up)
High mobility group protein B1: MGKGDPKKPRGKMSSYAFFVQTCREEHKKKHPDASVNFSEFSKKCSERWKTMSAKEKGKFEDMAKADKARYEREMKTYIPPKGETKKKFKDPNAPKRPPSAFFLFCSEYRPKIKGEHPGLSIGDVAKKLGEMWNNTAADDKQPYEKKAAKLKEKYEKDIAAYRAKGKPDAAKKGVVKAEKSKKKKEEEEDEEDEEDEEEEEDEEDEDEEEDDDDE
- induction of the cachectic phenotype (myosin HC content): do not induce precachexia and/or cachexia; also recorded: not cachexogenic in muscle
